The record followed here is patent publication US11351270B2, “Junctophilin-2 fragments and uses therefor” (University of Iowa Research Foundation, priority 2016, dated 2022).

The test system of data set [1] is pressure overload hypertrophy and heart failure. The experiment in a line: Transaortic banding (TAB) pressure overload in JP2NT-OE mice. In kind it is in vivo, mouse. On the procedure: Animal experiments were performed in accordance with the Guide for the Care and Use of Laboratory Animals (National Institutes of Health publication 85-23, revised 1996) and were approved by the Institutional Animal Care and Use Committee at the University of Iowa. Cardiac specific JP2NT overexpression vector was constructed by subcloning mouse JP2NT cDNA (Guo et al., 2015) into a tet-operated αMHC transgenic vector, as described previously (Guo et al., 2014). The oocyte injection of transgenic vectors was carried out by University of Iowa transgenic core. The injected oocytes were transferred to pseudopregnant recipients. Transgenic offsprings were backcrossed with C57BL/6J mice for >9 generations to generate transgenic mice in a C57BL/6J background. These transgenic mice were crossed with αMHC-tTA (C57 background) (Guo et al., 2014) to generate double transgenic mice (JP2NT-OE) carrying both αMHC-JP2NT and αMHC-tTA. The non-overexpression single transgenic littermates were used as control. PCR was used to determine the genotype of transgenic mice. Nine to 10-wk-old male JP2NT-OE mice and their control littermates were subjected to pressure overload by transaortic banding (TAB) surgery, as described (Guo et al., 2014). Transthoracic echocardiograms were performed with conscious mice in the University of Iowa Cardiology Animal Phenotyping Core Laboratory, using a Vevo 2100 Imager (Visual Sonics), as described previously (Cheng et al., 1993).

Another data set relates to HEK293T cells. Kind of data set: Subcellular localization by confocal imaging. The data set is classed as cell-based. Particulars: HEK293T cells and cardiomyocytes. Here is the method: Immunofluorescence was done as described previously (Guo et al., 2015). A Zeiss confocal microscope LSM510 was used for recording cell images.
To Investigate the molecular mechanism of JP2NT nuclear importation, an in silico analysis (Sigrist et al., 2002) was performed. […] These domains are evolutionarily conserved among species (FIGS. 18B-C). […] Indicating this NLS is Indispensable for nuclear localization of JP2NT. A fusion protein containing mCherry and the bNLS peptide with the ARR was imported into nuclei (FIG. 16D).

Data set [2] has as its system cultured adult murine cardiomyocytes. The experiment in a line: RT-qPCR in cultured cardiomyocytes. In kind it is cell-based, mouse. Conditions: compared with Ad-Empty infected cells. On the procedure: RNA of cultured cardiomyocytes was extracted using RNAeasy (Qiagene). Myocardium RNA was extracted using Trizol. Total RNA was treated with DNASE-I to eliminate genomic DNA and then cleaned using RNA cleanup Kit (Qiagene).
Superscript II were used for Reverse Transcription of mRNA. A QUANT STUDIO 3 real-time PCR machine was used to run qPCR. The primers used in RT-PCR were: […]
For orientation: Quantitative PCR measures a nucleic acid by following its amplification.

For a further data set, the system named is cardiac hypertrophy. Kind of data set: Angiotensin-induced cardiac hypertrophy in JP2NT OE mice. The data set is classed as in vivo, mouse. On the procedure:
A transgenic mouse line with cardiac specific overexpression of an exogenous protein sequence corresponding to JP2NT was prepared. JP2NT (JP2(1-565)) transgenic mice were generated based on a tet-off system. The Flag and HA tagged JP2NT cDNA was cloned downstream of tet-operated alpha-MHC promoter, enabling the cardiac specific and conditional expression of JP2NT (FIG. 9A). The plasmid (αMHC-JP2NT) was delivered by pronuclear injection into fertilized eggs to make transgenic founders. The transgenic mouse lines were backcrossed to C57 background for 9 generations. αMHC-JP2NT mice have been crossed with αMHC-tTA mice to generate double transgenic αMHC-tTA-JP2NT mice (noted as JP2NT OE mice). This allows for inducible and cardiac-specific expression of JP2NT, in which tTA binds to tet-operon and activates transcription of JP2NT. Thus, the expression and nuclear localization of JP2NT in transgenic mice have been confirmed.

The test system of the next data set is TATA box DNA sequences. The experiment in a line: Gel shift assay with TATA box sequences. In kind it is binding. Particulars: GST-purified protein; cMyc or CMV promoter sequences. The source says: FIGS. 11A-H. JP2NT is a TATA-box binding protein enriched at transcription start site (TSS) and interacts with basic transcription machinery. […] C) 293T cells were transfected with HA-tagged JP2NT, followed by crosslinking-reversal immunoprecipitation with anti-HA and immunoblotting with anti-polymerase II (Rpb1) or anti-TATA box binding protein (TBP). D-H) JP2NT binds to TATA box DNA sequences in vitro. D-E) Gel shift assays of GST-purified JP2NT binding to WT (D). or mutated TATA box-containing sequences (E) derived from the cMyc promoter. F) Summary of the results of gel shift assays with various of TATA box variants or mutants. Mutation of the core TATA sequences abolished the interaction with GST-JP2NT. G) Deletion of the ARR, but not the N-terminal MORN domains, eliminated JP2NT binding to the TATA box sequence. H) The peptide JP2^331-405 containing the ARR specifically binds to WT TATA box sequence.
TBP specifically binds to TATA boxes, eukaryotic core cis-regulatory elements localized at transcription start site. […] This interaction was abrogated by mutation of the TATA box elements (FIGS. 11E&G and 17B). It was concluded that JP2NT is a DNA binding protein, binding to consensus TATA box represented as TATAA(A/T) or TATATA (FIG. 11F).
(In general: A gel shift assay detects complexes by their altered migration in electrophoresis.)

[3] abbreviates: after TAB, relative to controls.

B1: JP2NT: shorter form of Junctophilin-2 including the first 565 amino acids of N-terminus of JP2 (protein, UniProt Q9BR39 1-565, looked up, fragment)
chain: MSGGRFDFDDGGAYCGGWEGGKAHGHGLCTGPKGQGEYSGSWNFGFEVAGVYTWPSGNTFEGYWSQGKRHGLGIETKGRWLYKGEWTHGFKGRYGIRQSSSSGAKYEGTWNNGLQDGYGTETYADGGTYQGQFTNGMRHGYGVRQSVPYGMAVVVRSPLRTSLSSLRSEHSNGTVAPDSPASPASDGPALPSPAIPRGGFALSLLANAEAAARAPKGGGLFQRGALLGKLRRAESRTSVGSQRSRVSFLKSDLSSGASDAASTASLGEAAEGADEAAPFEADIDATTTETYMGEWKNDKRSGFGVSERSSGLRYEGEWLDNLRHGYGCTTLPDGHREEGKYRHNVLVKDTKRRMLQLKSNKVRQKVEHSVEGAQRAAAIARQKAEIAASRTSHAKAKAEAAEQAALAANQESNIARTLARELAPDFYQPGPEYQKRRLLQEILENSESLLEPPDRGAGAAGLPQPPRESPQLHERETPRPEGGSPSPAGTPPQPKRPRPGVSKDGLLSPGAWNGEPSGEGSRSVTPSEGAGRRSPARPATERMAIEALQAPPAPSREPEVALYQG
modifications: GST or adenoviral forms
notes: shorter form of Junctophilin-2 including the first 565 amino acids of N-terminus of JP2
On to B1, for which the “cardiac function (ejection fraction)” value in data set [1] (3 weeks after TAB, relative to controls) is listed as “improved cardiac function”. Also, in data set [1] (JP2NT OE mice), the “pressure overload induced heart failure” value is on record as “resistant”. Besides, in data set [1] (setting [3]), the “heart weight/body weight ratio” value is “lower” and the “lung edema (lung weight/body weight ratio)” value is given as “reduced lung edema”. Further, the “cardiac morphology or function at baseline” value in data set [1] (baseline, no TAB) was “no effect”. In the data set with HEK293T cells, the “nuclear localization / nuclear importation” value is “highly enriched in nuclei”. For the same molecule, in data set [2], the “cardiac hypertrophy markers ANP and BNP (mRNA)” value is listed as “not altered”; the “mRNA levels of KLF4, KLF6, Myc, TGFβR1, NFKBIA, FOXO1, PI3KR1 et al” value is given as “significantly decreased”. Moreover, the “Angiotensin-li induced cardiac hypertrophy” value in the data set with cardiac hypertrophy was “resistant”. The “binding to TATA box” value in the data set on TATA box DNA sequences was “directly binds”.
